Holding throughout (details): protein: recombinant; tags: N-terminal 6xHis; blunt
Data set [1] has as its target T1, SSRP1-M (Homo sapiens, UniProt Q08945 196-430). The data set is described as follows: EMSA; no obvious difference from linker DNA; EMSA buffer, salt, pH and temperature not given in the material; proteins purified in 20 mM Tris-HCl, 200 mM NaCl, pH 7.0. Background: A gel shift assay detects complexes by their altered migration in electrophoresis.
For a further data set, the target named is SSRP1-C (Homo sapiens, UniProt Q08945 513-709). The data set can be described thus: EMSA (agarose); EMSA buffer, salt, pH and temperature not given in the material; proteins purified in 20 mM Tris-HCl, 200 mM NaCl, pH 7.0.
Another data set has as its target SSRP1-N (Homo sapiens, UniProt Q08945 1-176). The description is as above.
In data set [2] the target is T1, SSRP1-M. The data set can be described thus: EMSA (agarose and native PAGE); oligomerized complex in wells; EMSA buffer, salt, pH and temperature not given in the material; proteins purified in 20 mM Tris-HCl, 200 mM NaCl, pH 7.0.

T1 sequence (Q08945 196-430): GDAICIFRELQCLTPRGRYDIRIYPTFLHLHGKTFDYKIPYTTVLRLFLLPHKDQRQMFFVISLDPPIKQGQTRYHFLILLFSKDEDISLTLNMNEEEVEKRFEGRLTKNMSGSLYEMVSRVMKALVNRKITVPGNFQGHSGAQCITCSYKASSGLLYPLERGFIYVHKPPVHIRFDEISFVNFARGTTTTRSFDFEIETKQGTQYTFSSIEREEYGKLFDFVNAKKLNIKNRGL
Chain of SSRP1-C (Q08945 513-709): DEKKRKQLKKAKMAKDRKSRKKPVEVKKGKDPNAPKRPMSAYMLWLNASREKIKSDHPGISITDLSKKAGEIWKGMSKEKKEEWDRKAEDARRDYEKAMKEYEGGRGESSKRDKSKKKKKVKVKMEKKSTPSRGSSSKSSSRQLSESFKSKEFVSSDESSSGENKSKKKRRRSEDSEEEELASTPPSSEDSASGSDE
Chain of SSRP1-N (Q08945 1-176): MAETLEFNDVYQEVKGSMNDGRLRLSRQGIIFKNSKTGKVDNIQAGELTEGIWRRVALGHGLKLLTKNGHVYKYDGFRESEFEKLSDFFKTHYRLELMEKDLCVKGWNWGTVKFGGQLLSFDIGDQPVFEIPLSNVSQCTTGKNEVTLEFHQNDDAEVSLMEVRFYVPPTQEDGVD

B1: AT-rich dsDNA (dsDNA)
DNA 1: ATAATTTATATTTATTATTTTATTATAATT
DNA 2: AATTATAATAAAATAATAAATATAAATTAT
In the case of B1, the binding result with SSRP1-M [1] is given as “binds”.

B2: 30-bp linker dsDNA (dsDNA)
DNA 1: TCCAGTGCCGGTGTCGCTTGGGTCCCGAGG
DNA 2: CCTCGGGACCCAAGCGACACCGGCACTGGA
As for B2, the binding result with SSRP1-C is listed as “binds”; with SSRP1-N, “no binding”; in the data set with SSRP1-M [2], “binds”.

B3: GC-rich dsDNA (dsDNA)
DNA 1: GCGGCCCGCGCCCGCCGCCCCGCCGCGGCC
DNA 2: GGCCGCGGCGGGGCGGCGGGCGCGGGCCGC
As to B3, the binding result in the data set with SSRP1-M [1] is “binds”.

(Values after paper PMC4685450, “Crystal Structure of Human SSRP1 Middle Domain Reveals a Role in DNA Binding”.)
